Tested on: Bacillus subtilis
Test: cleaved RNA product abundance (RNA/gDNA barcode ratio) relative to median wild-type variant (ratio to wild type); higher = more accumulation of the downstream cleavage product
In short: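 Reporter mRNAs based on truncated aprE or tetM carried barcoded, mutagenized RNase Y cleavage-site windows built from oligos with a 9% error rate and were integrated into the B. subtilis chromosome. Cultures grew in LB at 37°C from OD600 0.0003 to 0.3. Cleaved RNA was gel-selected, reverse transcribed and barcode-sequenced together with genomic DNA barcodes, and UMIs were collapsed. Cleaved product abundance is the per-construct ratio of RNA to gDNA barcodes, scaled to the median of constructs carrying the unmutated site.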

[1] = experiment (reporter, strain, medium): exp 4a: truncated aprE reporter, strain BJT201 with 2% xylose (RNase J1 expressed), cleavage site: cggR-gapA (positions -7 to +36 mutated)
[2] = experiment (reporter, strain, medium): exp 6: tetM reporter, strain 168, cleavage site: cggR-gapA (positions -7 to +36 mutated)
[3] = experiment (reporter, strain, medium): exp 2b: truncated aprE reporter, strain BJT200, cleavage site: cggR-gapA (positions -7 to +36 mutated)
[4] = experiment (reporter, strain, medium): exp 8a: truncated aprE reporter, strain BJT201 with 2% xylose (RNase J1 expressed), cleavage site: glnRA (positions -5 to +31 mutated)

| Sequence | cleaved RNA product abundance [1] | cleaved RNA product abundance [2] | cleaved RNA product abundance [3] | cleaved RNA product abundance [4] |
| --- | --- | --- | --- | --- |
| ACAGACGAAGGAGCCGCAAACACGTTATTAAGGGATGAATAATCCCTCAATATAAATATCTCTCACTTATTTAAA | 1.21 | – | – | – |
| ACAGACGAAGGAGCCGCAAAGAAGTTATTAACGGATGAATAATCCCTAAATATAAATATCTCTCACTTATTTAAA | 0.225 | 0.194 | – | – |
| ACAGACGAAGGAGCCGCAAAAAAGTTATTAAGGGTTGAATAATCCCTCAATATAAATATCTCTCACTTATTTAAA | 0.512 | – | 0.373 | – |
| CGACATGTCCCGCTTCTTTCATTAATCCTTGAGCAACTGTTTTGCTATATACATTTACCTTTTAAGAGGAGGAAT | – | – | – | 0.57 |
| ACAGACGAAGGAGCCGCAAAGAAGTTGTTAAGGTATGAATAATCCCTCAATATAAATATCTCTCACTTATTTAAA | 0.12 | – | – | – |
| ACAGACGAAGGAGCCGCAAAGAAGTTATTAAGGCATGATTAATCCCTCAATATAAATATCTCTCACTTATTTAAA | 0.15 | – | 0.125 | – |
| ACAGACGAAGGAGCCGCAAAGAAGTTATTAACGGATGAATAATCCCTCATTATAAATATCTCTCACTTATTTAAA | 0.141 | – | 0.128 | – |
| ACAGACGAAGGAGCCGCAAAGAAGTTGTTAAGGGAAGAATAATCCCTCAATATAAATATCTCTCACTTATTTAAA | 0.246 | – | – | – |
| CGACATGTCCCGCTTCTTTCATTAATCCTTTACCAACTGTTTTGCTATATACATTTACCTTTTAAGAGGAGGAAT | – | – | – | 0.125 |
| ACAGACGAAGGAGCCGCAAAGAAGTTATTAAGGGATGAATAATCCCTCAATGTAAATATCTCTCACTTATTTAAA | 0.13 | 0.154 | 0.139 | – |
| CGACATGTCCCGCTTCTTTCATTAATCCGTTTGCAACTGTTTAGCTATATACATTTACCTTTTAAGAGGAGGAAT | – | – | – | 0.517 |
| ACAGACGAAGGAGCCGCAAAGAAGTTATTAAAGGATGAATAATCCCTCAATATAAACATCTCTCACTTATTTAAA | 0.206 | – | – | – |
| ACAGACGAAGGAGCCGCGAAGAAGTTATTAAGGGATGAATAATCCCTCAATATAAATAACTCTCACTTATTTAAA | 0.969 | – | 1.05 | – |
| ACAGACGAAGGAGCCGCAAAGAAGTTATTCAGCGATGAATAATCCCTCAATATAAATATCTCTCACTTATTTAAA | 0.0886 | – | – | – |
| ACAGACGAAGGAGCCGCAAAGAAGTTATTAAGAGATGAATAATCCCTCAATATAAATATCTCTCACTTATTTAAA | 0.147 | 0.135 | 0.111 | – |
| ACAGACGAAGGAGCCGCAAAGAAGTTATTAAGAGATGAATAATCCCTCAATATAGATATCTCTCACTTATTTAAA | 0.147 | – | – | – |
| ACAGACGAAGGAGCCGCAAAGAAGTTATAAAGGGATGAATAATTCCTCAATATAAATATCTCTCACTTATTTAAA | 0.293 | – | – | – |
| ACAGACGAAGGAGCCGCAAAGAAGTTATTAAGTGATGAATAATCCCTTAATATAAATATCTCTCACTTATTTAAA | 0.388 | – | 0.6 | – |
| ACAGACGAAGGAGCCGCAAAGAAGTTATTAAGCAATGAATAATCCCTCAATATAAATATCTCTCACTTATTTAAA | 0.122 | – | 0.0903 | – |
| ACAGACGAAGGAGCCGCAAAGAAGTTATTAAGGTATGAATAATCCCTCAATCTAAATATCTCTCACTTATTTAAA | 0.0855 | – | – | – |
| ACAGACGAAGGAGCCGCTAAGTAGTTATTAAGGGATGAATAATCCCTCAATATAAATATCTCTCACTTATTTAAA | 1.27 | – | – | – |
| ACAGACGAAGGAGCCGCAAAGAAGTTATTAACGGATTAATAATCCCTCAATATAAATATCTCTCACTTATTTAAA | 0.141 | – | 0.121 | – |
| ACAGACGAAGGAGCCGCAAAGAAGTTATTAAGGGAAGAATAATCCCTCACTATAAATATCTCTCACTTATTTAAA | – | – | 0.187 | – |
| ACAGACGAAGGAGCCGCAAAGAAATTATTAAGGGATGAATAATCCCTCAGTATAAATATCTCTCACTTATTTAAA | 0.215 | – | – | – |
| ACAGACGAAGGAGCCGCAAACAACTTATTAAGGGATGAATAATCCCTCAATATAAATATCTCTCACTTATTTAAA | – | – | 0.172 | – |

— the supplement of paper PMC11780869
